*1 amine or outer side, *2 acyl side, *3 side chain or, on linkers, in order; H or OH if unused. Where a SMILES comes first, the peptide text is derived from it. Where no end group is shown, it is not given here. Side-chain parts run from the residue outwards. The star is where a group is joined. C20 diacid = O=C(O)CCCCCCCCCCCCCCCCCCC(=O)*; C18 diacid = O=C(O)CCCCCCCCCCCCCCCCC(=O)*; γGlu = O=C(O)[C@H](CCC(=O)[*:2])N[*:1]; Trx = NC[C@H]1CC[C@H](C(=O)O)CC1; AEEA = NCCOCCOCC(=O)O
Assays:
[1] = Mini-pig PK assay (plasma half-life); conditions: Göttingen, minipig, iv
Method: (§1) The mini-pigs had two central venous catheters inserted which were used for intra venous (i.v.) dosing and bloodsampling. Compound was dissolved in 50 mM K2HPO4, 0.05% tween 80, pH=8.0 to a concentration of 180 nmol/ml. The pigs were dosed with 6 nmol compound/kg body weight. […] The blood samples were collected into test tubes containing EDTA buffer for stabilization and kept on ice for max. 20 minutes before centrifugation. The centrifugation procedure to separate plasma was; 4° C., 3000 rpm for 10 minutes. Plasma were collected and immediately transferred to Micronic tubes stored at −20° C. until assayed.
An additional mini-pig PK assay was used for measuring PK of the compounds of the invention. […] The animals had two central venous catheters inserted which were used for intra venous (i.v.) dosing and blood sampling. Compounds were dissolved in 10 mM Na2HPO4, 150 mM NaCl, 0.01% tween 80, pH=4.0 to concentrations in the range of 40 nmol/ml to 200 nmol/ml. The mini-pigs were dosed i.v. with 10 nmol compound/kg body weight, occasionally other doses such as 4 nmol/kg, 30 nmol/kg or 50 nmol/kg were administered. Each compound was dosed to 3 or 4 mini-pigs, and two compounds may be given simultaneously to the same animal. Blood were sampled pre-dose and 12 times during the first 10 hours post-dose. Blood were furthermore sampled once daily until 13 days post dosing. The blood samples were collected into test tubes containing EDTA buffer, trasylol and Val-Pyr for stabilization and kept on ice for max. 20 minutes. Samples were centrifuged at 4° C., 2000G for 10 minutes to separate plasma. Plasma were collected and immediately transferred to Micronic tubes stored at −20° C. until assayed.
Plasma samples were analysed by LC-MS on an LTQ-Orbitrap (ThermoFisher Scientific, Bremen) to which Accela HPLC pumps and an autosampler were connected (both from ThermoFisher). […] HPLC was performed on a Jupiter Proteo column (4μ) 90A (50×2.0 mm ID). […] The flow rate was 0.3 ml/min. For analysis of plasma samples, 30 μl plasma was precipitated with 90 μl ethanol. […] The heptane phase was removed after 5 min and the remaining solution was analysed by LC-MS as described above. For construction of plasma standards, compound was spiked to plasma (minipig) at the following concentrations: 1 nM, 2 nM, 5 nM, 10 nM, 20 nM, 50 nM, 100 nM, 200 nM. The plasma standards were treated as the samples. The lower limit of quantification was estimated to 2 nM.
Non-compartmental analysis (NCA): Plasma concentration-time profiles were analyzed by non-compartmental pharmacokinetics analysis (NCA) using WinNonlin Professional 5.0 (Pharsight Inc., Mountain View, Calif., USA). NCA was performed using the individual plasma concentration-time profiles from each animal.
For determination of plasma concentration of the PYY and PP peptide derivative or analogues thereof the following Methods 1-4 were used.
as §1, with “bloodsampling. The compound” for “bloodsampling. Compound”, “to an appropriate” for “to a”, “concentration (e.g. 25-500 nmol/mL).” for “concentration of 180 nmol/ml.”, “dosed intravenously (i.v.) or subcutaneously (s.c.)” for “dosed”, “with between 1 and 30” for “with 6”, “buffer (with Aprotinin 15000 KIE/mL and Val-Pyr 0.30 mM)” for “buffer”
An additional mini-pig PK assay was used for measuring PK of the compounds of the invention. […] The animals had two central venous catheters inserted which were used for intra venous (i.v.) dosing and blood sampling.

Y2 receptor = molecular target: T1, Y2 receptor (UniProt P49146 1-381, limits assumed); test: cell-based or functional assay
T1 sequence (looked up): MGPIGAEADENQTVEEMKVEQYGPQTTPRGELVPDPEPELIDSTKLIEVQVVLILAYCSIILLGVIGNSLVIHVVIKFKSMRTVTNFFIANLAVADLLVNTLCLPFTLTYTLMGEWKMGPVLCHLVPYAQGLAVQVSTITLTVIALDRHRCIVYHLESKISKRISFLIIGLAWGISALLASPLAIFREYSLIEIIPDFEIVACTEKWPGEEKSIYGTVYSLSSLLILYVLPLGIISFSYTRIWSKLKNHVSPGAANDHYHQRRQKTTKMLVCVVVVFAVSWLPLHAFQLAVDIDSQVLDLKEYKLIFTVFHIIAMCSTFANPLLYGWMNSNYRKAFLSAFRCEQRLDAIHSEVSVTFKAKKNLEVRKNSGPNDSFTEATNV

Y4 receptor = Y4 receptor (UniProt P50391 1-375, limits assumed); test: cell-based or functional assay
Y4 receptor, sequence (P50391 whole entry): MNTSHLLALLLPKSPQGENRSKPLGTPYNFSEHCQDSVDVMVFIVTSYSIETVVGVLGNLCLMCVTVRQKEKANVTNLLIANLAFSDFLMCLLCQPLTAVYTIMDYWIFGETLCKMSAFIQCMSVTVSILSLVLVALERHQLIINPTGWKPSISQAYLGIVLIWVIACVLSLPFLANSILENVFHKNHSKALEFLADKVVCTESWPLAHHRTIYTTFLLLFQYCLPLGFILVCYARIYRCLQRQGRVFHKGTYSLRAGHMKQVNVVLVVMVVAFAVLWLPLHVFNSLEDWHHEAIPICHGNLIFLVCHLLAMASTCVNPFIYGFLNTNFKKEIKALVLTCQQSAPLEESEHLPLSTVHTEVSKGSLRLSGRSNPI

Molecule: CC[C@H](C)[C@H](NC(=O)[C@H](Cc1ccc(O)cc1)NC(=O)[C@H](CCCNC(=N)N)NC(=O)[C@H](CCCCNC(=O)COCCOCCNC(=O)COCCOCCNC(=O)CC[C@H](NC(=O)[C@H]1CC[C@H](CNC(=O)CCCCCCCCCCCCCCCCCCC(=O)O)CC1)C(=O)O)NC(=O)[C@H](CC(C)C)NC(=O)[C@H](CC(=O)O)NC(=O)[C@H](C)NC(=O)[C@H](C)NC(=O)[C@H](Cc1ccc(O)cc1)NC(=O)[C@H](CCC(N)=O)NC(=O)[C@H](C)NC(=O)[C@H](CC(C)C)NC(=O)[C@H](CCC(N)=O)NC(=O)[C@H](CCC(=O)O)NC(=O)[C@@H]1CCCN1C(=O)[C@@H](NC(=O)[C@H](C)NC(=O)[C@H](CC(N)=O)NC(=O)[C@H](CC(=O)O)NC(=O)CNC(=O)[C@@H]1CCCN1C(=O)[C@H](Cc1ccc(O)cc1)NC(=O)[C@@H](NC(=O)[C@@H]1CCCN1C(=O)[C@H](CCC(=O)O)NC(=O)[C@H](CC(C)C)NC(=O)[C@@H]1CCCN1C(=O)[C@H](C)N)C(C)C)[C@@H](C)O)C(=O)N[C@@H](CC(N)=O)C(=O)N[C@@H](CC(C)C)C(=O)N[C@@H](CC(C)C)C(=O)N[C@H](C(=O)N[C@@H](CCCNC(=N)N)C(=O)N1CCC[C@H]1C(=O)N[C@@H](CCCNC(=N)N)C(=O)N[C@@H](Cc1ccc(O)cc1)C(N)=O)[C@@H](C)O [SEQ ID NO: 71, N-epsilon25-[2-(2-{2-[2-(2-{2-[(S)-4-Carboxy-4-({trans-4-[(19-carboxynonadecanoylamino)methyl]cyclohexanecarbonyl}amino)butyrylamino]-ethoxy}ethoxy)acetylamino]ethoxy}ethoxy)acetyl][Leu17,Lys25,Leu30]hPP1-36] (H-APLEPVYPGDNATPEQLAQYAADLK([AEEA-AEEA-γGlu-Trx-C20 diacid])RYINLLTRPRY-NH2)
- half-life ([1]; in vivo, 13 nmol/kg): 13 h

Molecule: CC[C@H](C)[C@H](NC(=O)[C@H](Cc1ccc(O)cc1)NC(=O)[C@H](CCCNC(=N)N)NC(=O)[C@H](CCCNC(=N)N)NC(=O)[C@H](CC(C)C)NC(=O)[C@H](CC(=O)O)NC(=O)[C@H](C)NC(=O)[C@H](C)NC(=O)[C@H](Cc1ccc(O)cc1)NC(=O)[C@H](CCC(N)=O)NC(=O)[C@H](C)NC(=O)[C@H](CC(C)C)NC(=O)[C@H](CCC(N)=O)NC(=O)[C@H](CCCCNC(=O)COCCOCCNC(=O)COCCOCCNC(=O)CC[C@H](NC(=O)[C@H]1CC[C@H](CNC(=O)CCCCCCCCCCCCCCCCCCC(=O)O)CC1)C(=O)O)NC(=O)[C@@H]1CCCN1C(=O)[C@@H](NC(=O)[C@H](C)NC(=O)[C@H](CC(N)=O)NC(=O)[C@H](CC(=O)O)NC(=O)CNC(=O)[C@@H]1CCCN1C(=O)[C@H](Cc1ccc(O)cc1)NC(=O)[C@@H](NC(=O)[C@@H]1CCCN1C(=O)[C@H](CCC(=O)O)NC(=O)[C@H](CC(C)C)NC(=O)[C@@H]1CCCN1C(=O)[C@H](C)N)C(C)C)[C@@H](C)O)C(=O)N[C@@H](CC(N)=O)C(=O)N[C@@H](CC(C)C)C(=O)N[C@@H](CC(C)C)C(=O)N[C@H](C(=O)N[C@@H](CCCNC(=N)N)C(=O)N1CCC[C@H]1C(=O)N[C@@H](CCCNC(=N)N)C(=O)N[C@@H](Cc1ccc(O)cc1)C(N)=O)[C@@H](C)O [SEQ ID NO: 72, N-epsilon15-[2-(2-{2-[2-(2-{2-[(S)-4-Carboxy-4-({trans-4-[(19-carboxynonadecanoylamino)methyl]cyclohexanecarbonyl}amino)butyrylamino]-ethoxy}ethoxy)acetylamino]ethoxy}ethoxy)acetyl][Leu17,Lys15,Leu30]hPP1-36] (H-APLEPVYPGDNATPK([AEEA-AEEA-γGlu-Trx-C20 diacid])QLAQYAADLRRYINLLTRPRY-NH2)
- half-life ([1]; in vivo, 8 nmol/kg): 14 h

Molecule: CC[C@H](C)[C@H](NC(=O)[C@H](Cc1ccc(O)cc1)NC(=O)[C@H](CCCNC(=N)N)NC(=O)[C@H](CCCNC(=N)N)NC(=O)[C@H](CC(C)C)NC(=O)[C@H](CC(=O)O)NC(=O)[C@H](C)NC(=O)[C@H](C)NC(=O)[C@H](Cc1ccc(O)cc1)NC(=O)[C@H](CCC(N)=O)NC(=O)[C@H](C)NC(=O)[C@H](CC(C)C)NC(=O)[C@H](CCC(N)=O)NC(=O)[C@H](CCC(=O)O)NC(=O)[C@@H]1CCCN1C(=O)[C@H](CCCCNC(=O)COCCOCCNC(=O)COCCOCCNC(=O)CC[C@H](NC(=O)[C@H]1CC[C@H](CNC(=O)CCCCCCCCCCCCCCCCCCC(=O)O)CC1)C(=O)O)NC(=O)[C@H](C)NC(=O)[C@H](CC(N)=O)NC(=O)[C@H](CC(=O)O)NC(=O)CNC(=O)[C@@H]1CCCN1C(=O)[C@H](Cc1ccc(O)cc1)NC(=O)[C@@H](NC(=O)[C@@H]1CCCN1C(=O)[C@H](CCC(=O)O)NC(=O)[C@H](CC(C)C)NC(=O)[C@@H]1CCCN1C(=O)[C@H](C)N)C(C)C)C(=O)N[C@@H](CC(N)=O)C(=O)N[C@@H](CC(C)C)C(=O)N[C@@H](CC(C)C)C(=O)N[C@H](C(=O)N[C@@H](CCCNC(=N)N)C(=O)N[C@@H](CCC(N)=O)C(=O)N[C@@H](CCCNC(=N)N)C(=O)N[C@@H](Cc1ccc(O)cc1)C(=O)O)[C@@H](C)O [SEQ ID NO: 74, N-epsilon13-[2-(2-{2-[2-(2-{2-[(S)-4-Carboxy-4-({trans-4-[(19-carboxynonadecanoylamino)methyl]cyclohexanecarbonyl}amino)butyrylamino]-ethoxy}ethoxy)acetylamino]ethoxy}ethoxy)acetyl][Leu17,Lys13,Gln34]hPP1-36 acid] (H-APLEPVYPGDNAK([AEEA-AEEA-γGlu-Trx-C20 diacid])PEQLAQYAADLRRYINLLTRQRY-OH; N-terminus assumed)
- half-life ([1]; 16 nmol/kg): 8 h

B1: N-alfa-[2-(2-{2-[2-(2-{2-[(S)-4-Carboxy-4-(17-carboxyheptadecanoylamino)butyrylamino]ethoxy}ethoxy)acetylamino]-ethoxy}ethoxy)acetyl][Leu17,Leu30]hPP2-36 (peptide)
peptide: {C18 diacid-γGlu-AEEA-AEEA}-PLEPVYPGDNATPEQLAQYAADLRRYINLLTRPRY
modifications: ends and bridges not checked
- Y2 cAMP EC50 (Y2 receptor): > 1000 nM

B2: N-epsilon10-[2-(2-{2-[2-(2-{2-[(S)-4-Carboxy-4-({trans-4-[(19-carboxynonadecanoylamino)methyl]cyclohexanecarbonyl}amino)butyrylamino]-ethoxy}ethoxy)acetylamino] … (peptide)
peptide: PLEPVYPGK([AEEA-AEEA-γGlu-Trx-C20 diacid])NATPEQLAQYAADLRRYINLLTRQRY
modifications: ends and bridges not checked
- Y2 cAMP EC50 (Y2 receptor): 25 nM

B3: N-alfa-[2-(2-{2-[2-(2-{2-[(S)-4-Carboxy-4-({trans-4-[(19-carboxynonadecanoylamino)methyl]cyclohexanecarbonyl}amino)butyrylamino]-ethoxy}ethoxy)acetylamino]ethox … (peptide)
peptide: PLEPVYPGDNATPEQLAQYAADLRRYINLLTRPRY
modifications: not fully specified (N-terminus); printed as N-alfa-[2-(2-{2-[2-(2-{2-[(S)-4-Carboxy-4-({trans-4-[(19-carboxynonadecanoylamino)methyl]cyclohexanecarbonyl}amino)butyrylamino]-ethoxy}ethoxy)acetylamino]ethoxy}ethoxy)acetyl][Leu17,Leu30]hPP2-36; ends and bridges not checked
- Y2 cAMP EC50 (Y2 receptor): > 1000 nM

B4: N-epsilon13-[2-(2-{2-[2-(2-{2-[(S)-4-Carboxy-4-(17-carboxyheptadecanoylamino)butyrylamino]ethoxy}ethoxy)acetylamino]-ethoxy}ethoxy)acetyl][Lys13]hPP(1-36) (as … (peptide)
peptide: APLEPVYPGDNAK([AEEA-AEEA-γGlu-C18 diacid])PEQMAQYAADLRRYINMLTRPRY
modifications: ends and bridges not checked
- Y4 cAMP EC50 (Y4 receptor): 2 nM

B5: N-epsilon13-[2-(2-{2-[2-(2-{2-[(S)-4-Carboxy-4-(17-carboxyheptadecanoylamino)butyrylamino]ethoxy}ethoxy)acetylamino]-ethoxy}ethoxy)acetyl][Lys13]hPP(1-36) (as … (peptide)
peptide: APLEPVYPGDNAK([AEEA-AEEA-γGlu-C18 diacid])PEQMAQYAADLRRYINMLTRPRY
modifications: ends and bridges not checked
- Y4 cAMP EC50 (Y4 receptor): 4 nM
